# From US20260159596A1 (published 2026)
# B1: anti-DR3 2-10 monoclonal antibody (antibody, V domains shown)
# VH: QVQLVQSGAEVKKPGASVKVSCKASGYTFTSYGISWVRQAPGQGLEWMGWISAYNGNTNYAQKLQGRVTMTTDTSTSTAYMELRSLRSDDTAVYYCASGPDYGMLDYWGQGTLVTVS
# VL: EIVMTQSPSSLPASVGDRVTITCQASQDISNYLNWYQQKPGKAPKLLIYDASNLETGVPSRFSGSGSGTDFTFTISSPQPEDIATYYCQQYDNLPLTFGGGTKVEIK
# B2: anti-DR3 6-15 monoclonal antibody (antibody, V domains shown)
# VH: QVQLVQSGGGLVQPGGSLRLSCAASGFTFSSYSMNWVRQAPGKGLEWVSYISSSSSTIYYADSVKGRFTISRDNAKNSLYLQMNSLRAEDTAVYYCARWDGYCSGGSCYSGMDYWGQGTLVTVS
# VL: DIEMTQSPSSLSASVGDKVTITCQASQDISNYLNWYQQKPGKAPKLLIYDASNLETGVPSRFSGSGSGTDSTFTISSLQPEDIATYYCQQYDNLPLTFGGGTKVEIK
# B3: clone 4-4 IgG2 monoclonal antibody (antibody, V domains shown)
# VH: EVQLVESGGGLVKPGGSLRLSCAASGFTFSDYYMSWIRQAPGKGLEWVSYISSSSSYTNYADSVKGRFTISRDNAKNSLYLQMNSLRAEDTAVYYCASNVDTAMVGAFDIWGQGTLVTVS
# VL: DIEMTQSPSSVSASVGDTVTITCRASQHISNWLAWYQQKPGQAPKFLIYTASNLQSGVPSRFSGSGYGTDFTLTISGLQPEDFATYYCQQADSFPLTFGGGTKVDIK
# B4: TL1A (tumor necrosis factor-like ligand 1A), His tag (ligand)
# chain: LKGQEFAPSHQQVYAPLRADGDKPRAHLTVVRQTPTQHFKNQFPALHWEHELGLAFTKNRMNYTNKFLLIPESGDYFIYSQVTFRGMTSECSEIRQAGRPNKPDSITVVITKVTDSYPEPTQLLMGTKSVCEVGSNWFQPIYLGAMFSLQEGDKLMVNVSDISLVDYTKEDKTFFGAFLL
# B5: clone 4-4 IgG1 monoclonal antibody (antibody, V domains shown)
# VH: EVQLVESGGGLVKPGGSLRLSCAASGFTFSDYYMSWIRQAPGKGLEWVSYISSSSSYTNYADSVKGRFTISRDNAKNSLYLQMNSLRAEDTAVYYCASNVDTAMVGAFDIWGQGTLVTVS
# VL: DIEMTQSPSSVSASVGDTVTITCRASQHISNWLAWYQQKPGQAPKFLIYTASNLQSGVPSRFSGSGYGTDFTLTISGLQPEDFATYYCQQADSFPLTFGGGTKVDIK
# B6: anti-DR3 3-18 monoclonal antibody (antibody, V domains shown)
# VH: QVQLQQSGPGLVKPSETLSLTCTVSGGSISSSSYYWGWIRQPPGKGLEWIGSIYYSGSTYYNPSLKSRVTISVDTSKNQFSLKLSSVTAADTAVYYCARQVSGPLDYWGQGTLVTVS
# VL: DIVMTQSPSSLSASVGDRVTITCRASQGIRNDLGWYQQKPGKAPKLLIYAASSLQSGVPSRFSGSGSGTDFTLTISSLQPEDFATYYCLQDYNYPRTFGQGTKVEIK
# B7: anti-DR3 6-2 monoclonal antibody (antibody, V domains shown)
# VH: QVQLVQSGGGLVQPGGSLRLSCAASGFTFSSYSMNWVRQAPGKGLEWVSYISSSSSTIYYADSVKGRFTISRDNAKNSLYLQMNSLRAEDTAVYYCARWDGYCSGGSCYSGMDYWGQGTLVTVS
# VL: not shown
# Biological target: T1, recombinant DR3 (DR3-His tag) (human, UniProt Q93038 25-199)
# T1 chain: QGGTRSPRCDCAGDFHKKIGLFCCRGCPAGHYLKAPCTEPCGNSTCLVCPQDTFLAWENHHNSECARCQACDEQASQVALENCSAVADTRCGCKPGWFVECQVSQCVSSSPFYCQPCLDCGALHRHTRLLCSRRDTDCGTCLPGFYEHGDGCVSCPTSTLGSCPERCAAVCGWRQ
# Test: SPR
row,Binder,Kd
1,B1,0.693 nM
2,B2,82.4 nM
3,B3,35.8 nM
4,B4,426 nM
5,B5,1.56 nM
6,B6,0.0463 nM
7,B7,3.91 nM
